Series [1] addresses NS1 RBD H5N1 (Influenza A virus (H5N1; allele A)) (UniProt Q5H7J4). Put plainly: competition EMSA. (In EMSA bound probe runs differently from free probe, usually more slowly.)
In series [2] the target is T1, NS1 RBD H7N1 (Influenza A virus (avian H7N1; allele B)) (UniProt Q1PST0).
T1 sequence: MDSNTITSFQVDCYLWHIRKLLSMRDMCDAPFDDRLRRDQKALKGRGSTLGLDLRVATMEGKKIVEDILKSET
Nature of the series: competition EMSA.

The target of series [3] is wild type H7N1 NS1 RBD (RNA-binding domain of influenza A virus non-structural protein NS1, residues 1-73) (influenza A virus (avian H7N1)). Nature of the series: crystal structure.
In series [4] the target is NS1 RBD H3N2 (Influenza A virus (H3N2)) (UniProt I6T1Z2). Put plainly: EMSA.
Series [5] concerns the target NS1 RBD H5N1 (Influenza A virus (H5N1; allele A)) (UniProt Q5H7J4). Nature of the series: EMSA.
For series [6], the system named is NS1 RBD pdmH1N1 (Influenza A virus (pandemic H1N1)). Nature of the series: EMSA.

Take “GGUAACUGUAGAGGUUACAGAGAUGUAACCUCUACAGUUACC [shDM02-GAGA]”: the IC50 (as a rule, the concentration needed to halve the response being measured) in series [1] turned out to be 0.41 nM; in series [2] it was 0.24 nM.
Substance “CGCCUGUGUAGAGGUUACAGAGAUGUAACCUCACCACAGGCG [shDM05-GAGA]” gave an IC50 in series [1] of 100 nM.
Regarding “GGUAACUGUAGAGGAUGGAGAGAUCCAUCCUCUACAGUUACC [shDM06-GAGA]”, the IC50 in series [1] was found to be 1.1 nM; in series [2], 0.85 nM.
On to “wild type H7N1 NS1 RBD (RNA-binding domain of influenza A virus non-structural protein NS1, residues 1-73) (domain or fragment)”, for which, in series [3], the stoichiometry N (commonly the number of molecules, sites or subunits per partner or assembly) was 2.
Regarding “GGUAACCACAUGAGUUACAGCAAAAGACCUGUGUAACUCAUGCUGUUACC [DM01-midi]”, the concentration for half-maximal inhibition (IC50) in series [1] stood at 2.2 nM; in series [2] it was 2.7 nM.
Taken in the same sequence, the figures for “GGUAACAACUCGUCAUAGGUCACUUGAUUGAAGUAUGACGGGCUGUUACC [DM03-midi]” were 1.8 nM and 2.8 nM.
Take “AGACAGCAUUAUGCUGUCUUU / AGACAGCAUUAUGCUGUCUUU [ZKO]”: the IC50 in series [1] amounted to 90 nM.
Turning to “GGUAACUGUAGAGGUUACAGAGAUGUAACCUCACCAGUUACC [shDM03-GAGA]”, the IC50 in series [1] was 1.2 nM; in series [2] it was 0.64 nM.
Take “GGUAACUGUUACAGUUACC / GGUAACUGUUACAGUUACC [AWFC01]”: the equilibrium dissociation constant (Kd) (usually a measure of binding affinity in units of concentration) in series [4] worked out at 3.7 nM; in series [5], 0.98 nM; in series [6], 2.05 nM. Moreover, in series [1], the IC50 came to 1 nM.
